Reference: paper PMC10350818 (The EMBO Journal, 2023)

Assays:
Experiment in all cases: pull-down; GST pull-down with purified GST or GST-p37 as bait, p97 variants and SPI or SPI variant, in the presence of ATP; Western blot
Conditions in all cases: both partners purified
His-tagged p97 G54K = biological target: T1, His-tagged p97 G54K (human, UniProt P55072 2-806, G54K)
T1 construct: p97 (VCP), human, point mutation in the N-domain groove; source: generated in bacteria, purified

[1] = biological target: T2, His-tagged p97 (from bacteria), wild type (human, UniProt P55072 2-806)
T2 construct: p97 (VCP), human; Wild-type p97 of the GST pull-down assays; also called VCP; source: generated in bacteria, purified

His-tagged p97 Y143A = biological target: T3, His-tagged p97 Y143A (human, UniProt P55072 2-806, Y143A)
T3 construct: p97 (VCP), human, point mutation in the N-domain groove; source: generated in bacteria, purified
T3 sequence (P55072 2-806 Y143A): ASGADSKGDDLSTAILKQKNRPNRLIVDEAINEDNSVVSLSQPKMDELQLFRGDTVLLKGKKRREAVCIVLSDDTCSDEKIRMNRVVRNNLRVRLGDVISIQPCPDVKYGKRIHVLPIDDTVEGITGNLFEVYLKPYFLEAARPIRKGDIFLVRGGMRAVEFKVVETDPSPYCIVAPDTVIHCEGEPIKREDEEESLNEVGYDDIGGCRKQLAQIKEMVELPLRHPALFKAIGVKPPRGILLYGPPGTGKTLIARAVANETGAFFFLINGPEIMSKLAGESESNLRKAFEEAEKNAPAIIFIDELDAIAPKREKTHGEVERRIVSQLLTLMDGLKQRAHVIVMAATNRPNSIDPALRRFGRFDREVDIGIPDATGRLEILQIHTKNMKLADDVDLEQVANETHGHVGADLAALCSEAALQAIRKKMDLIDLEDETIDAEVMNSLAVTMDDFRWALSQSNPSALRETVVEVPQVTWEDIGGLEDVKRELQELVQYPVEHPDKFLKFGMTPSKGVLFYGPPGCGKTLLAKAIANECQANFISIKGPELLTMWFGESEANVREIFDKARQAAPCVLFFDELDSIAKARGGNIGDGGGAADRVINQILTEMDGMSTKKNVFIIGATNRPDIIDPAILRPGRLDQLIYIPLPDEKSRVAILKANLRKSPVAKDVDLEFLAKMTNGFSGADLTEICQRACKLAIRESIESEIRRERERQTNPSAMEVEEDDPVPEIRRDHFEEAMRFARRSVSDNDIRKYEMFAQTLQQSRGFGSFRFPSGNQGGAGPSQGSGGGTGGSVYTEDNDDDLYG

T1 sequence (P55072 2-806 G54K): as the sequence (P55072 2-806 Y143A) above, with G53K, A142Y counted along it
T2 sequence (P55072 2-806): as the sequence (P55072 2-806 Y143A) above, with A142Y counted along it

binding result (His-tagged p97 G54K): binds | binding result [1]: binds | binding result (His-tagged p97 Y143A): binds
B1: GST-p37 (natural protein, human, UniProt Q14CS0 1-331, looked up)
chain: MAEGGGPEPGEQERRSSGPRPPSARDLQLALAELYEDEVKCKSSKSNRPKATVFKSPRTPPQRFYSSEHEYSGLNIVRPSTGKIVNELFKEAREHGAVPLNEATRASGDDKSKSFTGGGYRLGSSFCKRSEYIYGENQLQDVQILLKLWSNGFSLDDGELRPYNEPTNAQFLESVKRGEIPLELQRLVHGGQVNLDMEDHQDQEYIKPRLRFKAFSGEGQKLGSLTPEIVSTPSSPEEEDKSILNAVVLIDDSVPTTKIQIRLADGSRLIQRFNSTHRILDVRNFIVQSRPEFAALDFILVTSFPNKELTDESLTLLEADILNTVLLQQLK
notes: Bait of the GST pull-down assays; source: generated in bacteria, purified
